Measured values as given in IntAct's records for PubMed 29039417.

B1: Protein PTHB1 (Homo sapiens), Q3SYG4 (parent)
chain: MSLFKARDWWSTILGDKEEFDQGCLCLANVDNSGNGQDKIIVGSFMGYLRIFSPHPAKTGDGAQAEDLLLEVDLRDPVLQVEVGKFVSGTEMLHLAVLHSRKLCVYSVSGTLGNVEHGNQCQMKLMYEHNLQRTACNMTYGSFGGVKGRDLICIQSMDGMLMVFEQESYAFGRFLPGFLLPGPLAYSSRTDSFLTVSSCQQVESYKYQVLAFATDADKRQETEQQKLGSGKRLVVDWTLNIGEQALDICIVSFNQSASSVFVLGERNFFCLKDNGQIRFMKKLDWSPSCFLPYCSVSEGTINTLIGNHNNMLHIYQDVTLKWATQLPHIPVAVRVGCLHDLKGVIVTLSDDGHLQCSYLGTDPSLFQAPNVQSRELNYDELDVEMKELQKIIKDVNKSQGVWPMTEREDDLNVSVVVSPNFDSVSQATDVEVGTDLVPSVTVKVTLQNRVILQKAKLSVYVQPPLELTCDQFTFEFMTPDLTRTVSFSVYLKRSYTPSELEGNAVVSYSRPTDRNPDGIPRVIQCKFRLPLKLICLPGQPSKTASHKITIDTNKSPVSLLSLFPGFASQSDDDQVNVMGFHFLGGARITVLASKTSQRYRIQSEQFEDLWLITNELILRLQEYFEKQGVKDFACSFSGSIPLQEYFELIDHHFELRINGEKLEELLSERAVQFRAIQRRLLARFKDKTPAPLQHLDTLLDGTYKQVIALADAVEENQGNLFQSFTRLKSATHLVILLIALWQKLSADQVAILEAAFLPLQEDTQELGWEETVDAAISHLLKTCLSKSSKEQALNLNSQLNIPKDTSQLKKHITLLCDRLSKGGRLCLSTDAAAPQTMVMPGGCTTIPESDLEERSVEQDSTELFTNHRHLTAETPRPEVSPLQGVSE
partner: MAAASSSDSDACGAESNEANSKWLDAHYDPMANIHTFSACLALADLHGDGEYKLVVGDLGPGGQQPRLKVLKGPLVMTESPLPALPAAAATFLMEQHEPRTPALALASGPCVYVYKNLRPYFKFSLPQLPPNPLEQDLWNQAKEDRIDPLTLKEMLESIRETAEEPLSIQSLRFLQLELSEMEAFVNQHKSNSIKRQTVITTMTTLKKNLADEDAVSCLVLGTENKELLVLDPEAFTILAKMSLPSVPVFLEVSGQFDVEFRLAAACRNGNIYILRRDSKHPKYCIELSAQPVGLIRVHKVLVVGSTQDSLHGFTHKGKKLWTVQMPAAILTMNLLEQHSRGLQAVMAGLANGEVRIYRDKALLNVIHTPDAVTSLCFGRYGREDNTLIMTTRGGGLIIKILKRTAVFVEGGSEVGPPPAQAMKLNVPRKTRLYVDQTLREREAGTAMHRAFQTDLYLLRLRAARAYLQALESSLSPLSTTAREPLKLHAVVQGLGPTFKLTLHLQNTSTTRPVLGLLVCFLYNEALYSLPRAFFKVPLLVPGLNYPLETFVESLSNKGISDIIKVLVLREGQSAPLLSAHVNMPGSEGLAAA

Variants of: B1
Conditions: with bbs1_human BBS1, Q8NFJ9

Variant	effect of a mutation on the interaction
Y490K	with no effect
R407A	with no effect
N576E	with no effect
K554S	disrupting interaction strength
G579E	with no effect
T445E	with no effect
L618K	with no effect
K594A	with no effect
L500K	with no effect
D422A	with no effect
D631K	with no effect
Y508K	with no effect
G638A	with no effect
G638K	with no effect
D573E	with no effect
G565A	with no effect
G565P	disrupting interaction strength
F474K	with no effect
T512K	with no effect
E660K	with no effect
K456E	with no effect
P463K	with no effect
D429A	with no effect
E607K	with no effect

Variant	effect of a mutation on the interaction
Q426A	with no effect
L559E	with no effect
S558E	with no effect
G502K	with no effect
G502R	disrupting interaction strength
L662A	with no effect
G584K	with no effect
I612A	with no effect
V413A	with no effect
T473K	with no effect
H651A	with no effect
I601K	with no effect
D551K	with no effect
L560A	with no effect
G518K	with no effect
G518A	with no effect
S596E	with no effect
T482K	with no effect
E499K	with no effect
V417K	with no effect
R528K	with no effect
S507F	disrupting interaction strength
M578A	with no effect
L446A	with no effect

Further lines, results first:

effect of a mutation on the interaction	Variant
with no effect	F684A
with no effect	F864K
with no effect	N794E
with no effect	S797E
with no effect	L665A
with no effect	V713A
with no effect	S828E
with no effect	S828A
with no effect	T844E
with no effect	Q807A
with no effect	L709E
with no effect	I751A
disrupting interaction strength	H778E
with no effect	E770A
with no effect	A712K
with no effect	N716E
with no effect	L695E
with no effect	A708E
with no effect	R876A
with no effect	G823K
with no effect	F724K
disrupting interaction strength	R679W

effect of a mutation on the interaction	Variant
with no effect	T688E
with no effect	A670E
with no effect	L720A
with no effect	A690E
disrupting interaction strength	A690T
with no effect	Q764A
with no effect	I776K
with no effect	L784A
with no effect	L827K
with no effect	L808A
disrupting interaction strength	S723A
with no effect	S723E
with no effect	E857K
with no effect	P881A
with no effect	E769A
with no effect	K685A
with no effect	I735A
with no effect	L752A
with no effect	L752K
with no effect	Q677A
with no effect	Q677K
